T1: G9a and GLP (Homo sapiens, UniProt Q96KQ7+Q9H9B1)
T1 sequence (Q96KQ7 2-1210 limits assumed): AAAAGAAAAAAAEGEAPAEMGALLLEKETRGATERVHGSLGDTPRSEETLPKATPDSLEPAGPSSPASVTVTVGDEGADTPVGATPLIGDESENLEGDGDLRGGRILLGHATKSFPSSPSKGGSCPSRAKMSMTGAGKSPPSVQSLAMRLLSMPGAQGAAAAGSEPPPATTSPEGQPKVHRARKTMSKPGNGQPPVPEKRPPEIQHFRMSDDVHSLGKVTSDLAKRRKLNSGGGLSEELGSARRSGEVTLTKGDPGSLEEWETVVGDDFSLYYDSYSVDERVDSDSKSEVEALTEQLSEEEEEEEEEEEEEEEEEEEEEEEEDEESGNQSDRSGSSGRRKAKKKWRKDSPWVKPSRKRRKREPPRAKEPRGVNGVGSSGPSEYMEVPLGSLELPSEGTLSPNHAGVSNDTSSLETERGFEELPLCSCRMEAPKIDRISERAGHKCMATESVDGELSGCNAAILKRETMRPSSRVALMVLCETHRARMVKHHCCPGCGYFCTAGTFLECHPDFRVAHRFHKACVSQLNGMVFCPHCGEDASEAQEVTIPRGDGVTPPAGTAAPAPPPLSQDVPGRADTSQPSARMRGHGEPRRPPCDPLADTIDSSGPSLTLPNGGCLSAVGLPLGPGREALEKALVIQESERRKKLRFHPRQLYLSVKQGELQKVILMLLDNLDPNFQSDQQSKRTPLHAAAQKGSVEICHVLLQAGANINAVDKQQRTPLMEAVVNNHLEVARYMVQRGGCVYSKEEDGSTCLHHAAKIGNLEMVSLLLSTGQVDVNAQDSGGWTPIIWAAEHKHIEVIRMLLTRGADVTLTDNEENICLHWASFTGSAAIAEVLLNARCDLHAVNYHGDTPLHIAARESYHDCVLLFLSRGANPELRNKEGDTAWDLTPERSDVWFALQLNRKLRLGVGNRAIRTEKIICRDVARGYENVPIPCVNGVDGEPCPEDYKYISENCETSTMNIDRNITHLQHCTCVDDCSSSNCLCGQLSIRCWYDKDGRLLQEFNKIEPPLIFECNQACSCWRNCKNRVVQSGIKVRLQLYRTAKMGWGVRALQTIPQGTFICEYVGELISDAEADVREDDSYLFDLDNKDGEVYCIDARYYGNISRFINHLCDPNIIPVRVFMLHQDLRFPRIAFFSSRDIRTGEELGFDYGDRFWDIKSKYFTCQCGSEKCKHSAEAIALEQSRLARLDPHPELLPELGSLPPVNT
T1 sequence (Q9H9B1 2-1298 limits assumed): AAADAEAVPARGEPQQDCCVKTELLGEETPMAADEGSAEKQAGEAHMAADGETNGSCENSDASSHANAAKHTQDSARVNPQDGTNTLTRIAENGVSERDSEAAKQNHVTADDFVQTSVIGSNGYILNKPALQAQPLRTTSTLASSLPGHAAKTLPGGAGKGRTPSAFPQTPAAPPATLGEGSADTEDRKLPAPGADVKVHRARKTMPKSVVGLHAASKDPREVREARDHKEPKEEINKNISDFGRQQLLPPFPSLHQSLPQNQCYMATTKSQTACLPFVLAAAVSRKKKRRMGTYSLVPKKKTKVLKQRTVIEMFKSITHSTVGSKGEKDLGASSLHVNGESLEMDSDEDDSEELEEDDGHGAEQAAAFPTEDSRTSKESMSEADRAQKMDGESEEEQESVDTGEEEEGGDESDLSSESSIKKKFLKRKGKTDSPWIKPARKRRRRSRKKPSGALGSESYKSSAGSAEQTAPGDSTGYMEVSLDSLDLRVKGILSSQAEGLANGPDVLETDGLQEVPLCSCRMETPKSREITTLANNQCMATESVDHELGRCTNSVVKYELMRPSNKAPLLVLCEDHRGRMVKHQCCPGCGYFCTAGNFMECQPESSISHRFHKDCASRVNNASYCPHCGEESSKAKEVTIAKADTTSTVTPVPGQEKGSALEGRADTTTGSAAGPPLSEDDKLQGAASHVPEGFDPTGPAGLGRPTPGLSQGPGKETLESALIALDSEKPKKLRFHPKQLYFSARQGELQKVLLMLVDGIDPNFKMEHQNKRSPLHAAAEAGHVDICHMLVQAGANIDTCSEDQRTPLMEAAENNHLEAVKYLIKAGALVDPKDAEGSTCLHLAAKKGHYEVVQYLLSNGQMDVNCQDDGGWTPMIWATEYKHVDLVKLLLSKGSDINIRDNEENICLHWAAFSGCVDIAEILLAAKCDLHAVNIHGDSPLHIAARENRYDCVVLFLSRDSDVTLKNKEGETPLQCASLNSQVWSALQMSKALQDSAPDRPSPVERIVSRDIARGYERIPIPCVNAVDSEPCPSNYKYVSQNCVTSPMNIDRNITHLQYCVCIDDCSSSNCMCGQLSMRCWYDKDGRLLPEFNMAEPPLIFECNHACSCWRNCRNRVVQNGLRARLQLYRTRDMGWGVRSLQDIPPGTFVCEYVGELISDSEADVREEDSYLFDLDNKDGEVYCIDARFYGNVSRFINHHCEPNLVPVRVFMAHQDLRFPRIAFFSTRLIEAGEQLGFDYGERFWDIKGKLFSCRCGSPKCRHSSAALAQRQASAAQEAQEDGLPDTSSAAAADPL


Tests used:
[1] = tested on: 3×MBT domain of L3MBTL1; assay: Triple SILAC pull-down, 3xMBT/3xMBTD355N ratio (cytoplasmic, nuclear and chromatin fractions of 293T cells); assay type: binding, human; conditions: SILAC ratio, pull-down 3xMBT vs 3xMBTD355N; for 3xMBT/D355N UNC Heavy: experiment with UNC0638 in heavy SILAC media; for 3xMBT/D355N UNC Light: experiment with UNC0638 in light SILAC media;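 on all read-outs here: proteins quantified with MaxQuant, requiring at least two unique peptides and quantification in both label directions, normalized to the mean of proteins from a digested loading control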
[2] = target: T1, G9a and GLP; assay: Triple SILAC pull-down after UNC0638 treatment of 293T cells, DMSO/UNC0638 ratio of protein captured by 3×MBT; assay type: cell-based; design: endogenous in cells; host or cells: HEK 293T; conditions: for Relative to UNC0638 UNC Heavy / Relative to UNC0638 UNC Light: SILAC ratio DMSO/UNC0638 of protein pulled down with 3xMBT; for Relative to UNC0638 UNC Heavy: UNC0638 in heavy SILAC media; for Relative to UNC0638 UNC Light: UNC0638 in light SILAC media; for Relative to UNC0638 Average: average of UNC Light and UNC Heavy experiments;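 on all read-outs here: mass spectrometry (Q-Exactive) SILAC quantitation, DMSO/UNC0638 ratio computed after subtracting 3×MBTD355N mutant pull-down background, only proteins with at least twofold 3×MBT over mutant signal considered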

Molecule | Relative to UNC0638 UNC Heavy [2] [log base 2] | Relative to UNC0638 UNC Light [2] [log base 2] | Relative to UNC0638 Average [2] [log base 2] | 3xMBT/D355N UNC Heavy [1] [log base 2] | 3xMBT/D355N UNC Light [1] [log base 2]
DSTN (protein, UniProt P60981 2-165, looked up) Destrin: ASGVQVADEVCRIFYDMKVRKCSTPEEIKKRKKAVIFCLSADKKCIIVEEGKEILVGDVGVTITDPFKHFVGMLPEKDCRYALYDASFETKESRKEELMFFLWAPELAPLKSKMIYASSKDAIKKKFQGIKHECQANGPEDLNRACIAEKLGGSLIVAFEGCPV | 0.24 | 0.04 | 0.14 | 3.00 | 2.54
SF3B1 (protein, UniProt O75533 1-1304, looked up) Splicing factor 3B subunit 1: MAKIAKTHEDIEAQIREIQGKKAALDEAQGVGLDSTGYYDQEIYGGSDSRFAGYVTSIAATELEDDDDDYSSSTSLLGQKKPGYHAPVALLNDIPQSTEQYDPFAEHRPPKIADREDEYKKHRRTMIISPERLDPFADGGKTPDPKMNARTYMDVMREQHLTKEEREIRQQLAEKAKAGELKVVNGAAASQPPSKRKRRWDQTADQTPGATPKKLSSWDQAETPGHTPSLRWDETPGRAKGSETPGATPGSKIWDPTPSHTPAGAATPGRGDTPGHATPGHGGATSSARKNRWDETPKTERDTPGHGSGWAETPRTDRGGDSIGETPTPGASKRKSRWDETPASQMGGSTPVLTPGKTPIGTPAMNMATPTPGHIMSMTPEQLQAWRWEREIDERNRPLSDEELDAMFPEGYKVLPPPAGYVPIRTPARKLTATPTPLGGMTGFHMQTEDRTMKSVNDQPSGNLPFLKPDDIQYFDKLLVDVDESTLSPEEQKERKIMKLLLKIKNGTPPMRKAALRQITDKAREFGAGPLFNQILPLLMSPTLEDQERHLLVKVIDRILYKLDDLVRPYVHKILVVIEPLLIDEDYYARVEGREIISNLAKAAGLATMISTMRPDIDNMDEYVRNTTARAFAVVASALGIPSLLPFLKAVCKSKKSWQARHTGIKIVQQIAILMGCAILPHLRSLVEIIEHGLVDEQQKVRTISALAIAALAEAATPYGIESFDSVLKPLWKGIRQHRGKGLAAFLKAIGYLIPLMDAEYANYYTREVMLILIREFQSPDEEMKKIVLKVVKQCCGTDGVEANYIKTEILPPFFKHFWQHRMALDRRNYRQLVDTTVELANKVGAAEIISRIVDDLKDEAEQYRKMVMETIEKIMGNLGAADIDHKLEEQLIDGILYAFQEQTTEDSVMLNGFGTVVNALGKRVKPYLPQICGTVLWRLNNKSAKVRQQAADLISRTAVVMKTCQEEKLMGHLGVVLYEYLGEEYPEVLGSILGALKAIVNVIGMHKMTPPIKDLLPRLTPILKNRHEKVQENCIDLVGRIADRGAEYVSAREWMRICFELLELLKAHKKAIRRATVNTFGYIAKAIGPHDVLATLLNNLKVQERQNRVCTTVAIAIVAETCSPFTVLPALMNEYRVPELNVQNGVLKSLSFLFEYIGEMGKDYIYAVTPLLEDALMDRDLVHRQTASAVVQHMSLGVYGFGCEDSLNHLLNYVWPNVFETSPHVIQAVMGALEGLRVAIGPCRMLQYCLQGLFHPARKVRDVYWKIYNSIYIGSQDALIAHYPRIYNDDKNTYIRYELDYIL | 0.11 | 0.18 | 0.14 | 3.17 | 3.31

Continued, in another order:

Relative to UNC0638 UNC Heavy [2] [log base 2] | Relative to UNC0638 UNC Light [2] [log base 2] | Relative to UNC0638 Average [2] [log base 2] | Molecule | 3xMBT/D355N UNC Heavy [1] [log base 2] | 3xMBT/D355N UNC Light [1] [log base 2]
−0.09 | 0.37 | 0.14 | SH3PXD2B (protein, UniProt A1X283 1-911, looked up) SH3 and PX domain-containing …: MPPRRSIVEVKVLDVQKRRVPNKHYVYIIRVTWSSGSTEAIYRRYSKFFDLQMQMLDKFPMEGGQKDPKQRIIPFLPGKILFRRSHIRDVAVKRLIPIDEYCKALIQLPPYISQCDEVLQFFETRPEDLNPPKEEHIGKKKSGGDQTSVDPMVLEQYVVVANYQKQESSEISLSVGQVVDIIEKNESGWWFVSTAEEQGWVPATCLEGQDGVQDEFSLQPEEEEKYTVIYPYTARDQDEMNLERGAVVEVIQKNLEGWWKIRYQGKEGWAPASYLKKNSGEPLPPKPGPGSPSHPGALDLDGVSRQQNAVGREKELLSSQRDGRFEGRPVPDGDAKQRSPKMRQRPPPRRDMTIPRGLNLPKPPIPPQVEEEYYTIAEFQTTIPDGISFQAGLKVEVIEKNLSGWWYIQIEDKEGWAPATFIDKYKKTSNASRPNFLAPLPHEVTQLRLGEAAALENNTGSEATGPSRPLPDAPHGVMDSGLPWSKDWKGSKDVLRKASSDMSASAGYEEISDPDMEEKPSLPPRKESIIKSEGELLERERERQRTEQLRGPTPKPPGVILPMMPAKHIPPARDSRRPEPKPDKSRLFQLKNDMGLECGHKVLAKEVKKPNLRPISKSKTDLPEEKPDATPQNPFLKSRPQVRPKPAPSPKTEPPQGEDQVDICNLRSKLRPAKSQDKSLLDGEGPQAVGGQDVAFSRSFLPGEGPGRAQDRTGKQDGLSPKEISCRAPPRPAKTTDPVSKSVPVPLQEAPQQRPVVPPRRPPPPKKTSSSSRPLPEVRGPQCEGHESRAAPTPGRALLVPPKAKPFLSNSLGGQDDTRGKGSLGPWGTGKIGENREKAAAASVPNADGLKDSLYVAVADFEGDKDTSSFQEGTVFEVREKNSSGWWFCQVLSGAPSWEGWIPSNYLRKKP | 3.07 | 3.71
−0.11 | 0.38 | 0.14 | EWSR1 (protein, UniProt Q01844 1-656, looked up) RNA-binding protein EWS: MASTDYSTYSQAAAQQGYSAYTAQPTQGYAQTTQAYGQQSYGTYGQPTDVSYTQAQTTATYGQTAYATSYGQPPTGYTTPTAPQAYSQPVQGYGTGAYDTTTATVTTTQASYAAQSAYGTQPAYPAYGQQPAATAPTRPQDGNKPTETSQPQSSTGGYNQPSLGYGQSNYSYPQVPGSYPMQPVTAPPSYPPTSYSSTQPTSYDQSSYSQQNTYGQPSSYGQQSSYGQQSSYGQQPPTSYPPQTGSYSQAPSQYSQQSSSYGQQSSFRQDHPSSMGVYGQESGGFSGPGENRSMSGPDNRGRGRGGFDRGGMSRGGRGGGRGGMGSAGERGGFNKPGGPMDEGPDLDLGPPVDPDEDSDNSAIYVQGLNDSVTLDDLADFFKQCGVVKMNKRTGQPMIHIYLDKETGKPKGDATVSYEDPPTAKAAVEWFDGKDFQGSKLKVSLARKKPPMNSMRGGLPPREGRGMPPPLRGGPGGPGGPGGPMGRMGGRGGDRGGFPPRGPRGSRGNPSGGGNVQHRAGDWQCPNPGCGNQNFAWRTECNQCKAPKPEGFLPPPFPPPGGDRGRGGPGGMRGGRGGLMDRGGPGGMFRGGRGGDRGGFRGGRGMDRGGFGGGRRGGPGGPPGPLMEQMGGRRGGRGGPGKMDKGEHRQERRDRPY | 2.09 | 2.82
